Results as given in US9045527 (dated 2015).
Where no end group is shown, it is not given here.

B1: VQD^RhTRL metallopeptide (peptide)
peptide: Ac-VQD(dirhodium)TRL-OH
modifications: also: dirhodium metal complex at Asp side-chain carboxylate
B2: E^RhVQSTRL metallopeptide (peptide)
peptide: Ac-E(dirhodium)VQSTRL-OH
modifications: also: dirhodium metal complex at Glu side-chain carboxylate
B3: E(Rh)WPTSII (peptide)
peptide: Ac-E(dirhodium)WPTSII-OH
modifications: also: dirhodium metal complex at Glu side chain
B4: EVQSTRL (peptide)
peptide: Ac-EVQSTRL-OH
B5: EWPTSII (peptide)
peptide: Ac-EWPTSII-OH
B6: E(Rh)VQSTRL (peptide)
peptide: Ac-E(dirhodium)VQSTRL-OH
modifications: also: dirhodium metal complex at Glu side-chain carboxylate
B7: QLD^RhVTR metallopeptide (peptide)
peptide: Ac-QLD(dirhodium)VTR
modifications: also: dirhodium metal complex at Asp side-chain carboxylate
B8: QLDVTR peptide (scrambled control sequence) (peptide)
peptide: Ac-QLDVTR
B9: VQDTRL (peptide)
peptide: Ac-VQDTRL-OH
B10: E^RhWPTSII metallopeptide (peptide)
peptide: Ac-E(dirhodium)WPTSII-OH
modifications: also: dirhodium metal complex at Glu side chain

How the values were obtained:
[1] = target: T1, CAL PDZ domain (CALP), wild type (UniProt Q9HD26 278-362); test: fluorescence anisotropy displacement; Fig 9B
[2] = target: CALP-H301A mutant (UniProt Q9HD26 278-362); test: fluorescence anisotropy displacement; Fig 9B
[3] = target: N1P1; test: fluorescence anisotropy displacement; Fig 9B
[4] = target: T1, CAL PDZ domain (CALP), wild type; test: fluorescence anisotropy displacement; Fig 9A; upper bound, nonspecific Rh inhibition
[5] = target: T1, CAL PDZ domain (CALP), wild type; test: fluorescence anisotropy displacement; Fig 9A

| Binder | Ki [1] | Ki [3] | also measured |
| --- | --- | --- | --- |
| B1 | ~49000 nM | – | – |
| B2 | 430 nM | – | Ki [2]: 11300 nM |
| B3 | – | > 50000 nM | – |
| B4 | – | 710 nM | – |
| B5 | – | > 500000 nM | – |
| B6 | – | 32 nM | – |
| B7 | – | – | Ki [4]: 10000 nM |
| B8 | – | – | Ki [5]: > 500000 nM |
| B9 | – | 700 nM | – |
| B10 | 1300 nM | – | – |
